In patent US20100316636A1:

Assays:
[1] = target: recombinant human IL-6R protein, monomeric form (human) (UniProt P08887); test: SPR (BIAcore), antibody captured on anti-mouse Fc, monomeric IL-6R 1.25-40 nM injected
[2] = target: recombinant monkey monomeric IL-6R protein (Macaca fascicularis, extracellular domain) (Macaca fascicularis); test: as above
hIL-6R-hFc (human) = hIL-6R-hFc (human) (UniProt P08887); test: blocking immunoassay: 100 pM hIL-6R-hFc premixed with titrated antibody, free hIL-6R-hFc captured on coated hIL-6
[3] = target: human IL-6 receptor on hIL-6-responsive cells (XG-1 myeloma line, HepG2 hepatoma line) (human) (UniProt P08887); test: cell-based or functional assay
[4] = target: recombinant human IL-6R protein, monomeric form (human) (UniProt P08887); test: Kinexa solution-phase competition immunoassay, monomer
[5] = target: recombinant human IL-6R protein, monomeric form (human) (UniProt P08887); test: SPR (BIAcore), captured antibody, monomeric hIL-6R injected

Sequence of recombinant human IL-6R protein, monomeric form (human) (P08887 20-358 limits assumed): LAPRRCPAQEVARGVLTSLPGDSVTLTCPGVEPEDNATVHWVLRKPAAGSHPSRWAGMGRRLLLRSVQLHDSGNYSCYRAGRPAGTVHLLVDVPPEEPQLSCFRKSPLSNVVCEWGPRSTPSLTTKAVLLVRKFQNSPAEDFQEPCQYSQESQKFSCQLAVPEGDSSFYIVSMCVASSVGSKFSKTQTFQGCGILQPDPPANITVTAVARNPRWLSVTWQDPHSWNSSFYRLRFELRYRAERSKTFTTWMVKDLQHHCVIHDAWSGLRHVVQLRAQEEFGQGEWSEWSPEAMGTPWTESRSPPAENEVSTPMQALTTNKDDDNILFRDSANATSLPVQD
Sequence of human IL-6 receptor on hIL-6-responsive cells (XG-1 myeloma line, HepG2 hepatoma line) (human) (P08887 20-468): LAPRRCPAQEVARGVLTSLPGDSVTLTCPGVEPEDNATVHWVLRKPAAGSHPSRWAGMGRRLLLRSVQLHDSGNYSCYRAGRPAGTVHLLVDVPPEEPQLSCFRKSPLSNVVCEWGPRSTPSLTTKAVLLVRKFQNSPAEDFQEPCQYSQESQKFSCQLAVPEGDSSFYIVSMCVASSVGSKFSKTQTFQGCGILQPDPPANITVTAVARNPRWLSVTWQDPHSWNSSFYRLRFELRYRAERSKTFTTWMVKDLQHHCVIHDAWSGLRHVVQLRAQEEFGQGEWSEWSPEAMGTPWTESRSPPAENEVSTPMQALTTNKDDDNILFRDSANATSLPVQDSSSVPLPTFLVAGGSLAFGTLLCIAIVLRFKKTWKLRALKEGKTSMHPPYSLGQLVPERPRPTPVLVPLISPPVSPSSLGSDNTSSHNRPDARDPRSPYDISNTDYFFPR
Sequence of recombinant monkey monomeric IL-6R protein (Macaca fascicularis, extracellular domain) (Macaca fascicularis) (P08887 other isoform, or with tags, fused parts or gaps): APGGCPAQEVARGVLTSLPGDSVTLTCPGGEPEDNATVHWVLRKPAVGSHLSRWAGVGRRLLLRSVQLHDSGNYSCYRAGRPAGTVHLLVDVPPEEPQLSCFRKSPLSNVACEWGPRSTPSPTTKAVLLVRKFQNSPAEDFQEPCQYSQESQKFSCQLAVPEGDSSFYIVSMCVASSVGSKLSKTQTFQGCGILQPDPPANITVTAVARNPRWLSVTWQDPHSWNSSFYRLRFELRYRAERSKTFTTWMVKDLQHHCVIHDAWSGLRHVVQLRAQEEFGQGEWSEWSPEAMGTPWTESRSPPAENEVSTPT
Sequence of hIL-6R-hFc (human) (P08887 20-358): as the sequence (P08887 20-358 limits assumed) above

Kd [1]: 0.963 nM | Kd [2]: 1.17 nM | IC50 (hIL-6R-hFc (human)): 2.2 nM | HepG2/Stat3 Luciferase activity IC50 [3]: 0.854 nM | XG-1 cell proliferation Inhibition IC50 [3]: 1.5 nM | Kd [4]: 1.96 nM | Kd [5]: 1.79 nM
Substance: control: humanized monoclonal antibody to human IL-6R (U.S. Pat. No. 5,817,790 SEQ ID NO:69 and 71)
